In US20240393292A1, “ALLERGY ANTIGEN AND EPITOPE THEREOF” (HOYU CO., LTD., priority 2019, published 2024):

B1: Gamma-gliadin (protein, listed as Triticum aestivum)
chain: MKIFMVFALLVASTTITTATAQLDPRIHDQERPQQSFLQQQPLIQQQPYPPQEPQQPLFPQKEPQQPFPLQQPQYQQQQPYPQQPLPQEQLPQQHLFPQQPPQQQFPQQMPLPHQQQTFPQQQQQQQQQEQLPQQLPQFPQQQPFSQYQQPLTQQPYSQEQPLPQQQPSVEEKQQLNLCKEFLLQQCNPEEKLSLLQSVIPFLRPKTSQQNSCQLKRLQCCRQLAHISEPSRCPAIHNIVHAIVMQQQHVDRGFGQPQPQQLGQEMPMQPQHQLGQHSILPQQLAQYKLVRLLVIQTLPMLCNVHVPSDCYTITAPFGSMTAYNGGQ
modifications: posttranslational modification
notes: same protein as spot 16, differing posttranslational modification
B2: Globulin 3 (protein, listed as Triticum aestivum)
chain: MATRARVTIPLLFLLGTSLLFAAAVSASHDEEEDRRGGRSLQQCVQRCQQDRPRYSHARCVQECRDDQQQHGRHEQEEQGRGHGRHGEGEREEEQGRGRGRHGQGEREEEQGRGRGRRGEGERDEEHGDGRRPYVFGPRSFRRIIRSDHGFVKALRPFDEVSRLLRGIRNYRVAIMEVNPRAFVVPGLTDADGVGYVAQGEGVLTVIENGEKRSYTVRQGDVIVAPAGSIMHLANTDGRRKLVIAKILHTISVPGKFQYFSAKPLLASLSKRVLTAALKTSDERLGSLLGSRQGKEEEEKSISIVRASEEQLRELRRQASEGDQGHHWPLPPFRGDSRDTFNLLEQRPKIANRHGRLYEADARSFHALAQHDVRVAVANITPGSMTAPYLNTQSFKLAVVLEGEGEVEIVCPHLGRDSERREQEHGKGRWRSEEEEDDRRQQRRRGSGSESEEEQDQQRYETVRARVSRGSAFVVPPGHPVVEIASSRGSSNLQVVCFEINAERNERVWLAGRNNVIAKLDDPAQELTFGRPAREVQEVFRAKDQQDEGFVAGPEQQQEHERGDRRRGDRGRGDEAVEAFLRMATAAL
modifications: posttranslational modification
notes: same protein as spot 12, differing posttranslational modification

System: IgE antibody in the serum of a wheat-allergic patient
Assay: Immunoblotting of two-dimensional electrophoresis pattern of wheat proteins with patient serum
Type: binding, human
Settings: immunoblot of 2D electrophoresis; compared with serum of non-wheat-allergic subject
Experimental: Identification of antigens by immunoblotting was carried out by taking all the steps up to the step of “Second-dimensional SDS-PAGE” as described above in Example 1, followed by the steps of “Transfer to membrane”, “Immunoblotting” and “Analysis” as described below.
Transfer to membrane was done using the following transfer system and transfer buffer. • Transfer system: XCell SureLock Mini-Cell and XCell II Blot Module (produced by Life Technologies) • Transfer buffer: NuPAGE Transfer Buffer (×20) (produced by Life Technologies), used in a form diluted […] with milliQ water. […]
The immunoblots obtained with the serum from the wheat-allergic patient were compared with those obtained with the control serum from the non-wheat-allergic subject. For protein present in wheat, in immunoblotting using the serum from the wheat-allergic patient, 16 spots were detected (FIG. 2), which are different from the spots detected when the serum of the non-wheat-allergic subject was used and different from those of the known wheat allergen proteins. […]

Molecule | specific binding of IgE antibody in serum of wheat-allergic patient to protein spot
B1 | binding to IgE antibodies was confirmed
B2 | binding to IgE antibodies was confirmed
